Ends that are not written are not given here.

Experiment in all cases: BLI (Octet), peptide immobilised, protein 2 µM; KD = koff/kon
Test [1] deals with DISC1 C-region mutant L807-frameshift (human) (UniProt Q9NRI5).
Test [2] addresses T1, DISC1 C-region (residues 691-836) mutant S713E (human, UniProt Q9NRI5 691-836).
T1 construct: range 691-836; Expression and tag are described only for the WT construct (N-terminal His6)
T1 sequence (looked up): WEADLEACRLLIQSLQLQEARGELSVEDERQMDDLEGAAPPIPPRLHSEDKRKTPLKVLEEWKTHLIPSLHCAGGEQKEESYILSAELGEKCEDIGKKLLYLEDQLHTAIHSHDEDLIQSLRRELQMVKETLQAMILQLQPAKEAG

Test [3] has as its target T2, wild-type (WT) human DISC1 C-region (residues 691-836) (human, UniProt Q9NRI5 691-836).
T2 construct: range 691-836; Expressed in E. coli as an N-terminal His6 fusion construct, purified on Co2+-NTA and by size exclusion; Used in solution at 2 µM in BLI; also called WT C-region; C-region of DISC1; not shown: N-terminal His6 fusion tag
T2 sequence (looked up): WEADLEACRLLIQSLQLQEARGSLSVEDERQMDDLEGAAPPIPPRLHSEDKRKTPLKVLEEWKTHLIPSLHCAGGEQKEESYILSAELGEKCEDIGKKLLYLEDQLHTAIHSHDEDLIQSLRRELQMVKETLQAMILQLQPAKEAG

Test [4] addresses T3, DISC1 C-region (residues 691-836) mutant S704C (human, UniProt Q9NRI5 691-836).
T3 construct: range 691-836; Expression and tag are described only for the WT construct (N-terminal His6)
T3 sequence (looked up): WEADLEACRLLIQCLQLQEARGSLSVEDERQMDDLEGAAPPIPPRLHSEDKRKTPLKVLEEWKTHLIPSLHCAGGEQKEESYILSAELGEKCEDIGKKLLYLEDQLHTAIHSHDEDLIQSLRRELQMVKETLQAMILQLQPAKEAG

In general, Kd refers to a measure of binding affinity in units of concentration. Regarding QDNPWWHEHKHWKSWP-NH2 [Flo5 (…-NH2)], the Kd in test [1] was found to be 270 nM.

B1: Flo5 (QDNPWWHEHKHWKSWP-NH2) (peptide)
peptide: QDNPWWHEHKHWKSWP-NH2
notes: Phage display hit selected on oligomeric WT C-region; Immobilised on the BLI sensor by EDC/NHS coupling
As for B1, the values for the Kd in test [2], in test [3] and in test [4] were 210 nM, 250 nM and 360 nM, respectively.

B2: Flm6 (WNHPMNIRSISWHKDS-NH2) (peptide)
peptide: WNHPMNIRSISWHKDS-NH2
notes: Phage display hit selected on monomeric WT C-region; Immobilised on the BLI sensor by EDC/NHS coupling
In the case of B2, the results for the Kd in test [2], in test [3] and in test [4] were 1070 nM, 2010 nM and 2240 nM, respectively.
For the molecule PWYNAPHSHGFWGSGR-NH2 [Flm9 (…-NH2)], the Kd in test [1] turned out to be 390 nM.

B3: Flm9 (PWYNAPHSHGFWGSGR-NH2) (peptide)
peptide: PWYNAPHSHGFWGSGR-NH2
notes: as for B2
For the molecule B3, the equilibrium dissociation constant (Kd) worked out at 1500 nM in test [2], 3200 nM in test [3] and 1490 nM in test [4].
AWQHHELKWKQYQGWR-NH2 [Flm2 (…-NH2)]: the Kd in test [1] was determined as 110 nM.

B4: Flo8 (KYTAIHEWYKAHNGGA-NH2) (peptide)
peptide: KYTAIHEWYKAHNGGA-NH2
notes: as for B1
Turning to B4, the Kd in test [2] amounted to 460 nM; in test [3] it was 2620 nM; in test [4], 1040 nM.

B5: Flm2 (AWQHHELKWKQYQGWR-NH2) (peptide)
peptide: AWQHHELKWKQYQGWR-NH2
notes: as for B2
With B5, the values for the Kd in test [2], in test [3] and in test [4] were 220 nM, 640 nM and 150 nM, respectively.

B6: Flo3 (HISMQTYKWSQWAKHQ-NH2) (peptide)
peptide: HISMQTYKWSQWAKHQ-NH2
notes: as for B1
With B6, the dissociation constant Kd was found to be 420 nM in test [2], 2620 nM in test [3] and 270 nM in test [4].

B7: Flo1 (FPHPTLKHREFMRHVS-NH2) (peptide)
peptide: FPHPTLKHREFMRHVS-NH2
notes: as for B1
For B7, the Kd in test [2] is 70 nM; in test [3] it was 100 nM; in test [4], 160 nM.
Take GIKSLISNKMHTQWNY-NH2 [Flm5 (…-NH2)]: the Kd in test [1] is 110 nM.

B8: Flm1 (IWAGHIHDWWRRGQGS-NH2) (peptide)
peptide: IWAGHIHDWWRRGQGS-NH2
modifications: not fully specified; printed as IWAGHIHDWWRRGQGS-NH2
notes: as for B2
Turning to B8, the Kd in test [2] was 80 nM; in test [3] it was 150 nM; in test [4] it was 80 nM.
On to IWAGHIHDWWRRGQGS-NH2 (not fully specified; printed as IWAGHIHDWWRRGQGS-NH2) [Flm1 (…-NH2)], for which, in test [1], the dissociation constant (Kd) is 200 nM.
For KYTAIHEWYKAHNGGA-NH2 [Flo8 (…-NH2)], the equilibrium dissociation constant (Kd) in test [1] is 170 nM.
With HKLHHLLKWENQHKVE-NH2 [Flm11 (…-NH2)], in test [1], the Kd is 540 nM.
Consider SNWHPRHFFMSPSSPQ-NH2 [Flo6 (…-NH2)], for which the Kd in test [1] was determined as 170 nM.
Consider FPHPTLKHREFMRHVS-NH2 [Flo1 (…-NH2)], for which the Kd in test [1] worked out at 40 nM.

B9: Flo11 (TSGVPWWKFQQQVRRT-NH2) (peptide)
peptide: TSGVPWWKFQQQVRRT-NH2
notes: as for B1
In the case of B9, the Kd stood at 890 nM in test [2], 3680 nM in test [3] and 1060 nM in test [4].
As to TSGVPWWKFQQQVRRT-NH2 [Flo11 (…-NH2)], the Kd in test [1] amounted to 160 nM.
Take WNHPMNIRSISWHKDS-NH2 [Flm6 (…-NH2)]: the Kd in test [1] turned out to be 530 nM.

B10: Flm11 (HKLHHLLKWENQHKVE-NH2) (peptide)
peptide: HKLHHLLKWENQHKVE-NH2
notes: as for B2
For B10, the Kd was 420 nM in test [2], 1270 nM in test [3] and 720 nM in test [4].

B11: Flo6 (SNWHPRHFFMSPSSPQ-NH2) (peptide)
peptide: SNWHPRHFFMSPSSPQ-NH2
notes: as for B1
B11: the Kd in test [2] was found to be 460 nM; in test [3], 2360 nM; in test [4], 720 nM.
On to HISMQTYKWSQWAKHQ-NH2 [Flo3 (…-NH2)], for which the Kd in test [1] turned out to be 400 nM.

B12: Flm5 (GIKSLISNKMHTQWNY-NH2) (peptide)
peptide: GIKSLISNKMHTQWNY-NH2
notes: as for B2
Turning to B12, the dissociation constant (Kd) stood at 80 nM in test [2], 640 nM in test [3] and 150 nM in test [4].

The values are drawn from patent EP4296276A1 (Forschungszentrum Jülich GmbH, dated 2023).
